Drawing on patent publication US20230391859A1 (Novo Nordisk, published 2023), this text covers koff and Kd for one molecule.

Test [1] deals with T1, monomeric TTR (UniProt P02766 21-147). Kind of test: BIACORE (SPR); off-rate from monomers. A general note: Surface plasmon resonance follows binding to a sensor surface in real time, without labels.
Test [2] addresses T1, monomeric TTR. The test can be described thus: BIACORE (SPR); monomeric TTR (affinity).
Test [3] concerns the target T2, aggregated TTR (UniProt P02766 21-147). Kind of test: BIACORE (SPR); off-rate from amyloid (aggregated TTR).
Test [4] concerns the target T2, aggregated TTR. The test can be described thus: BIACORE (SPR), apparent affinity with avidity; same value in mass units; same KD in mass units.
The target of test [5] is T2, aggregated TTR. The test can be described thus: BIACORE (SPR), apparent affinity with avidity; aggregated TTR; apparent affinity (affinity+avidity).

B1: PRX004 (antibody, human IgG1, kappa, V domains shown)
VH: EVQLVESGGGLVQPGGSLKLSCAASGFTFSSYTMSWVRQTPEKRLELVAEINNSGDTTYYPDTVKGRFTISRDNAKNTLYLQMSSLKSEDTAMYYCARHYYYGGGYGGWFFDVWGQGTLVTVSS
VL: DIVMTQSPLSLPVTPGEPASISCRSSKSLLHSNGNTYLYWFLQKPGQSPQLLIYRVSNLASGVPSRFSGSGSGTDFTLKISRVEAEDVGVYYCMQHLEYPLTFGQGTKLEIKR
notes: Humanized IgG1 kappa monoclonal antibody; also called humanized immunoglobulin (Ig) G1 kappa mAb
For orientation: koff means a measure of how fast the partners let go of each other. Lower therefore signals a long-lived complex. Consider B1, for which the koff came out at 0.0037 s⁻¹ with monomeric TTR [1] and 0.0002 s⁻¹ in the test with aggregated TTR [3]. Moreover, the Kd with monomeric TTR [2] was 134 nM; with aggregated TTR [4] it was 0.48 µg/mL; with aggregated TTR [5] it was 3.2 nM.
